# Reference: patent publication US20260028608
# Experiments:
# [1] = target: IgG in human serum pool from 100 individuals
# [2] = target: anti-drug antibodies (ADA) in human serum
Protein,"enzyme concentration at which intact IgG started to be digested, serum pool with 0.1 mg/ml pCART243 (SDS-PAGE) [1]",enzyme concentration at which scIgG are further digested into F(ab')2 and Fc fragments in serum pool (SDS-PAGE) [1],enzyme concentration for cleavage from IgG to scIgG in serum pool (SDS-PAGE) [1],restoration of pCART239 IgG cleavage activity in serum by 0.1 mg/ml inactive decoy (SDS-PAGE) [2]
"pCART239, a variant IdeZ polypeptide of the invention (protein) MDDYQRNATEAYAKEVPHQITSVWTKGVTPPEQFTQGEDVIHAPYLAHQGWYDITKAFNGKDDLLCGAATAGNMLHWWFDQNKTEIEAYLSKHPEKQKIIFRNQELFDLKAAIDTKDSQTNSQLFNYFRDKAFPNLSARQLGVMPDLVLDMFINGYYLNVFKTQSTDVNRPYQDKDKRGGIFDAVFTRGNQTTLLTARHDLKNKGLNDISTIIKQELTEGRALALSHTYANVSISHVINLWGADFNAEGNLEAIYVTDSDANASIGMKKYFVGINAHGHVAISAKKIEGENIGAQVLGLFTLSSGKDIWQKLSGGGHHHHHH",Intact IgG started to be digested already at 0.03 µg/ml,approximately 1.9 µg/ml of enzyme,approximately 0.9 µg/ml of enzyme,–
"pCART243, an inactive variant IdeZ polypeptide (protein) MDDYQRNATEAYAKEVPHQITSVWTKGVTPPEQFTQGEDVIHAPYLAHQGWYDITKAFNGKDDLLGGAATAGNMLHWWFDQNKTEIEAYLSKHPEKQKIIFRNQELFDLKAAIDTKDSQTNSQLFNYFRDKAFPNLSARQLGVMPDLVLDMFINGYYLNVFKTQSTDVNRPYQDKDKRGGIFDAVFTRGNQTTLLTARHDLKNKGLNDISTIIKQELTEGRALALSHTYANVSISHVINLWGADFNAEGNLEAIYVTDSDANASIGMKKYFVGINAHGHVAISAKKIEGENIGAQVLGLFTLSSGKDIWQKLSGGGHHHHHH",–,–,–,should bind the inactivating ADA to the extent that the activity of pCART239 in serum is restored. This was shown to be the case
